Measurements reported in PMC6056500, “Novel interactomics approach identifies ABCA1 as direct target of evodiamine, which increases macrophage cholesterol efflux” (Scientific Reports, 2018).

Columns and labels:
[1] = molecular target: T1, ATP-binding cassette transporter A1 (ABCA1) (Homo sapiens, UniProt O95477); test: SPR (Biacore […], immobilized ABCA1 C-terminal peptide on CM5 chip); also identified by NPOT in THP-1 extract
T1 construct: recombinant ABCA1 peptide (Abcam #ab125995), C-terminal domain 2085–2245aa
T1 sequence (O95477 2085-2245): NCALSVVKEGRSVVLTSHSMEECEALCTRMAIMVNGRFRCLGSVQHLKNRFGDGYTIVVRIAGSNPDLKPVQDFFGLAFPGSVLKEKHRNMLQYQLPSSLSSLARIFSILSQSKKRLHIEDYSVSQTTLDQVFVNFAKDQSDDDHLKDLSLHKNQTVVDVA

[2] = molecular target: T2, recombinant human retinal dehydrogenase-1 (ALDH1A1) (human, UniProt P00352 1-501); test: SPR; Biacore 3000; ABCA1 peptide immobilised on a CM5 chip by amine coupling; proteins dialysed against HBS-E (10 mM Hepes, 150 mM NaCl, 3 mM EDTA); ALDH1A1 injected at 6e-8 to 1e-6 M; 1:1 fit (Langmuir or drifting baseline); settings: both partners purified
T2 construct: retinal dehydrogenase 1 (aldehyde dehydrogenase 1 family, member A1), human, recombinant; also called ALDHA1; aldehyde dehydrogenase 1 family, member A1
T2 sequence (looked up): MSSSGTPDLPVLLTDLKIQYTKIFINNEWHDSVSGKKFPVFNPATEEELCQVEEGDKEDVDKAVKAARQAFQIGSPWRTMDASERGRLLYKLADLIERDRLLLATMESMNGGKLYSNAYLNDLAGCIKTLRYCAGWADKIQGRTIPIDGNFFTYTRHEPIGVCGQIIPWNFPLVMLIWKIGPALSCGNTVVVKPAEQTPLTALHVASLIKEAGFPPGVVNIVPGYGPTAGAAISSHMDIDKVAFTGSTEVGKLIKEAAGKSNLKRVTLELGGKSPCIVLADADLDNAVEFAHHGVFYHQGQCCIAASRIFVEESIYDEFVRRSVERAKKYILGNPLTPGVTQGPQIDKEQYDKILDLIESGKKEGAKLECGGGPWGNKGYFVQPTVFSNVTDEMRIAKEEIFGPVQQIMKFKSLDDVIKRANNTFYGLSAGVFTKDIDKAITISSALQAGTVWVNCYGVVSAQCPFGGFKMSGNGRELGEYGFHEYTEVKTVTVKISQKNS

CN1c2ccccc2C(=O)N2CCc3c([nH]c4ccccc34)C21 (stereo in doubt) [evodiamine]
Kd [1]: 810 nM

B1: recombinant ABCA1 peptide (Abcam #ab125995, covering C-terminal domain 2085-2245aa) (domain or fragment, UniProt O95477 2085-2245, looked up)
chain: T1 sequence (O95477 2085-2245)
notes: check the Abcam data sheet; source: bought: Abcam #ab125995, recombinant
Ka [2]: 1.25e+06 M⁻¹ | Kd [2]: 803 nM
